Experimental data from paper PMC6886185, “eIF4A2 drives repression of translation at initiation by Ccr4-Not through purine-rich motifs in the 5′UTR”.

What was measured:
eIF4A2 [1] = target: T1, eIF4A2 (UniProt Q14240 1-407); test: fluorescence anisotropy; 1 mM AMP-PNP, 1 mM Mg2+; 20 mM Hepes/KOH pH 7.5, 100 (mM) KCl, 1 mM MgCl2, 1 mM AMP-PNP, 1 mM TCEP, 0.1% DMSO, +/-50 uM silvestrol (10 uM in Fig 4a legend), 60 min, 25 C; numeric Kd of; settings: protein: recombinant; tags: SUMO tag cleaved; label: 5' FAM; single strand, unstructured
eIF4A2 [2] = target: T1, eIF4A2; test: competition; 20-fold excess; readily displaces pre-bound FAM-(CAA)6CA; 20 mM Hepes/KOH pH 7.5, 100 (mM) KCl, 1 mM MgCl2, 1 mM AMP-PNP, 1 mM TCEP, 0.1% DMSO, +/-50 uM silvestrol (10 uM in Fig 4a legend), 60 min, 25 C; numeric Kd of; settings: protein: recombinant; tags: SUMO tag cleaved; label: none; single strand
eIF4A1 = eIF4A1 (UniProt P60842 1-406); test: fluorescence anisotropy; AMP-PNP; 20 mM Hepes/KOH pH 7.5, 100 (mM) KCl, 1 mM MgCl2, 1 mM AMP-PNP, 1 mM TCEP, 0.1% DMSO, +/-50 uM silvestrol (10 uM in Fig 4a legend), 60 min, 25 C; numeric Kd of; settings: protein: recombinant; tags: SUMO tag cleaved; label: FAM; blunt
eIF4A2 [3] = target: T1, eIF4A2; test: as above; settings: protein: recombinant; tags: SUMO tag cleaved; label: FAM; blunt
eIF4A2 [4] = target: T1, eIF4A2; test: EMSA; AMP-PNP; bound even under high molar excess of (CAA)6CA; 20 mM Hepes/KOH pH 7.5, 100 (mM) KCl, 1 mM MgCl2, 1 mM AMP-PNP, 1 mM TCEP, 0.1% DMSO, +/-50 uM silvestrol (10 uM in Fig 4a legend), 60 min, 25 C; numeric Kd of; settings: protein: recombinant; tags: SUMO tag cleaved; label: Dy780; single strand

T1 sequence (Q14240 whole entry): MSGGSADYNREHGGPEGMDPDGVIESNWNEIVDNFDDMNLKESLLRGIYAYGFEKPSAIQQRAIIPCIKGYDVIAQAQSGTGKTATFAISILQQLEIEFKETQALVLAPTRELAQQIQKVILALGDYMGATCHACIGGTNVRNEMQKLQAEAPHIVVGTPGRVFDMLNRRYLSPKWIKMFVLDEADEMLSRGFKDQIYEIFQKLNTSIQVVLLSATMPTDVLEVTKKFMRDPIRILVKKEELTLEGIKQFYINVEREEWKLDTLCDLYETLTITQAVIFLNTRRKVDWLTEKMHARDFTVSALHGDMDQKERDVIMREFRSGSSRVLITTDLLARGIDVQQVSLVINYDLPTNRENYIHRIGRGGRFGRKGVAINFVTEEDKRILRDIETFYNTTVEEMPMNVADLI
Chain of eIF4A1 (P60842 whole entry): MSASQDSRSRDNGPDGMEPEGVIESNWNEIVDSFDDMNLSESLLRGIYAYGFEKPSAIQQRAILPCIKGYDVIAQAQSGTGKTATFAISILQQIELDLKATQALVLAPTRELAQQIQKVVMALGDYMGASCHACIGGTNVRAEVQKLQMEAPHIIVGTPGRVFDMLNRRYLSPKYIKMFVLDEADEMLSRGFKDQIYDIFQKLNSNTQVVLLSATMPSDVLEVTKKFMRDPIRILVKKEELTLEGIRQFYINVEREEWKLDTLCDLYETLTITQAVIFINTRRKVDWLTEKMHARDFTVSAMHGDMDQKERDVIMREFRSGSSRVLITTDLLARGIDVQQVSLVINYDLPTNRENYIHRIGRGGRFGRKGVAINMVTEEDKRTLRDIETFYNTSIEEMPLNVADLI

AGAGAGAGAGAGAGAGAGAG (ssRNA) [(AG)10 ssRNA]
binding result (eIF4A2 [1]): binds

AGAGAGAGAGAGAGAGAGAG (ssRNA) [(AG)10 unlabelled competitor]
binding result (eIF4A2 [2]): binds

B1: (AG)10:(CU)10 dsRNA (dsRNA)
RNA 1: AGAGAGAGAGAGAGAGAGAG
RNA 2: CUCUCUCUCUCUCUCUCUCU
binding result (eIF4A1): no binding | binding result (eIF4A2 [3]): no binding

AGAGAGAGAGAGAGAGAGAG (ssRNA) [Dy780-(AG)10 ssRNA]
binding result (eIF4A2 [4]): binds
